Results: patent US20240270846A1 (published 2024)

target: T1, CD3 epsilon homodimer protein (UniProt P07766 23-126); test: SPR Biacore T200, CD3e homodimer on chip, antibody analyte;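 further: CD3 epsilon homodimer amine-coupled on CM4 sensor chip, antibodies injected as analyte at 25 °C in HBS-EP+, ratio ≥0.8 taken as binding retained versus unaltered parent antibody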
T1 construct: Construct of the homodimer is not described; also called CD3 (CD3 epsilon)
T1 sequence (P07766 23-126): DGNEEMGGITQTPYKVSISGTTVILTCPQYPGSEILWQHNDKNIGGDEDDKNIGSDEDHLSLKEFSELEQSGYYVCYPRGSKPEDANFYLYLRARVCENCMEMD

ratio of amounts bound (altered form/GLS3000)	Binder
0.27	GLS3000 G91A one-arm antibody (antibody, human IgG1, kappa, L234A L235A, N297A, name in Kabat numbering) light: DIVMTQSPLSLPVTPGEPASISCRSSQSLVHSNRNTYLHWYQQKPGQAPRLLIYKVSNRFSGVPDRFSGSGSGTDFTLKISRVEAEDVGVYYCGQATQVPYTFGQGTKLEIKRTVAAPSVFIFPPSDEQLKSGTASVVCLLNNFYPREAKVQWKVDNALQSGNSQESVTEQDSKDSTYSLSSTLTLSKADYEKHKVYACEVTHQGLSSPVTKSFNRGEC heavy: QVQLVESGGGVVQPGRSLRLSCAASGFTFSNAWMHWVRQAPGKGLEWVAQIKAKSNNYATYYAESVKGRFTISRDDSKNSLYLQMNSLKTEDTAVYYCRYVHYGAYYGVDAWGQGTTVTVSSASTKGPSVFPLAPSSKSTSGGTAALGCLVKDYFPEPVTVSWNSGALTSGVHTFPAVLQSSGLYSLSSVVTVPSSSLGTQTYICNVNHKPSNTKVDKKVEPKSCDKTHTCPPCPAPEAAGGPSVFLFPPKPKDTLMISRTPEVTCVVVDVSHEDPEVKFNWYVDGVEVHNAKTKPREEQYASTYRVVSVLTVLHQDWLNGKEYKCKVSNKALPAPIEKTISKAKGQPREPQVYTLPPSRCELTKNQVSLSCAVKGFYPSDIAVEWESNGQPENNYKTTPPVLDSDGSFFLVSKLTVDKSRWQQGNVFSCSVMHEALHNHYTQKSLSLSPDYKDDDDK EPKSSDKTHTCPPCPAPELLGGPSVFLFPPKPKDTLMISRTPEVTCVVVDVSHEDPEVKFNWYVDGVEVHNAKTKPREEQYNSTYRVVSVLTVLHQDWLNGKEYKCKVSNKALPAPIEKTISKAKGQPREPQVCTLPPSRDELTKNQVSLWCLVKGFYPSDIAVEWESNGQPENNYKTTPPVLDSDGSFFLYSKLTVDKSRWQQGNVFSCSVMHEALHNRYTQKSLSLSP
0.27	GLS3000 G91P one-arm antibody (antibody, human IgG1, kappa, L234A L235A, N297A, name in Kabat numbering) light: DIVMTQSPLSLPVTPGEPASISCRSSQSLVHSNRNTYLHWYQQKPGQAPRLLIYKVSNRFSGVPDRFSGSGSGTDFTLKISRVEAEDVGVYYCGQPTQVPYTFGQGTKLEIKRTVAAPSVFIFPPSDEQLKSGTASVVCLLNNFYPREAKVQWKVDNALQSGNSQESVTEQDSKDSTYSLSSTLTLSKADYEKHKVYACEVTHQGLSSPVTKSFNRGEC heavy: QVQLVESGGGVVQPGRSLRLSCAASGFTFSNAWMHWVRQAPGKGLEWVAQIKAKSNNYATYYAESVKGRFTISRDDSKNSLYLQMNSLKTEDTAVYYCRYVHYGAYYGVDAWGQGTTVTVSSASTKGPSVFPLAPSSKSTSGGTAALGCLVKDYFPEPVTVSWNSGALTSGVHTFPAVLQSSGLYSLSSVVTVPSSSLGTQTYICNVNHKPSNTKVDKKVEPKSCDKTHTCPPCPAPEAAGGPSVFLFPPKPKDTLMISRTPEVTCVVVDVSHEDPEVKFNWYVDGVEVHNAKTKPREEQYASTYRVVSVLTVLHQDWLNGKEYKCKVSNKALPAPIEKTISKAKGQPREPQVYTLPPSRCELTKNQVSLSCAVKGFYPSDIAVEWESNGQPENNYKTTPPVLDSDGSFFLVSKLTVDKSRWQQGNVFSCSVMHEALHNHYTQKSLSLSPDYKDDDDK EPKSSDKTHTCPPCPAPELLGGPSVFLFPPKPKDTLMISRTPEVTCVVVDVSHEDPEVKFNWYVDGVEVHNAKTKPREEQYNSTYRVVSVLTVLHQDWLNGKEYKCKVSNKALPAPIEKTISKAKGQPREPQVCTLPPSRDELTKNQVSLWCLVKGFYPSDIAVEWESNGQPENNYKTTPPVLDSDGSFFLYSKLTVDKSRWQQGNVFSCSVMHEALHNRYTQKSLSLSP
0.16	GLS3000 G91E one-arm antibody (antibody, human IgG1, kappa, L234A L235A, N297A, name in Kabat numbering) light: DIVMTQSPLSLPVTPGEPASISCRSSQSLVHSNRNTYLHWYQQKPGQAPRLLIYKVSNRFSGVPDRFSGSGSGTDFTLKISRVEAEDVGVYYCGQETQVPYTFGQGTKLEIKRTVAAPSVFIFPPSDEQLKSGTASVVCLLNNFYPREAKVQWKVDNALQSGNSQESVTEQDSKDSTYSLSSTLTLSKADYEKHKVYACEVTHQGLSSPVTKSFNRGEC heavy: QVQLVESGGGVVQPGRSLRLSCAASGFTFSNAWMHWVRQAPGKGLEWVAQIKAKSNNYATYYAESVKGRFTISRDDSKNSLYLQMNSLKTEDTAVYYCRYVHYGAYYGVDAWGQGTTVTVSSASTKGPSVFPLAPSSKSTSGGTAALGCLVKDYFPEPVTVSWNSGALTSGVHTFPAVLQSSGLYSLSSVVTVPSSSLGTQTYICNVNHKPSNTKVDKKVEPKSCDKTHTCPPCPAPEAAGGPSVFLFPPKPKDTLMISRTPEVTCVVVDVSHEDPEVKFNWYVDGVEVHNAKTKPREEQYASTYRVVSVLTVLHQDWLNGKEYKCKVSNKALPAPIEKTISKAKGQPREPQVYTLPPSRCELTKNQVSLSCAVKGFYPSDIAVEWESNGQPENNYKTTPPVLDSDGSFFLVSKLTVDKSRWQQGNVFSCSVMHEALHNHYTQKSLSLSPDYKDDDDK EPKSSDKTHTCPPCPAPELLGGPSVFLFPPKPKDTLMISRTPEVTCVVVDVSHEDPEVKFNWYVDGVEVHNAKTKPREEQYNSTYRVVSVLTVLHQDWLNGKEYKCKVSNKALPAPIEKTISKAKGQPREPQVCTLPPSRDELTKNQVSLWCLVKGFYPSDIAVEWESNGQPENNYKTTPPVLDSDGSFFLYSKLTVDKSRWQQGNVFSCSVMHEALHNRYTQKSLSLSP
0.16	GLS3000 G91D one-arm antibody (antibody, human IgG1, kappa, L234A L235A, N297A, name in Kabat numbering) light: DIVMTQSPLSLPVTPGEPASISCRSSQSLVHSNRNTYLHWYQQKPGQAPRLLIYKVSNRFSGVPDRFSGSGSGTDFTLKISRVEAEDVGVYYCGQDTQVPYTFGQGTKLEIKRTVAAPSVFIFPPSDEQLKSGTASVVCLLNNFYPREAKVQWKVDNALQSGNSQESVTEQDSKDSTYSLSSTLTLSKADYEKHKVYACEVTHQGLSSPVTKSFNRGEC heavy: QVQLVESGGGVVQPGRSLRLSCAASGFTFSNAWMHWVRQAPGKGLEWVAQIKAKSNNYATYYAESVKGRFTISRDDSKNSLYLQMNSLKTEDTAVYYCRYVHYGAYYGVDAWGQGTTVTVSSASTKGPSVFPLAPSSKSTSGGTAALGCLVKDYFPEPVTVSWNSGALTSGVHTFPAVLQSSGLYSLSSVVTVPSSSLGTQTYICNVNHKPSNTKVDKKVEPKSCDKTHTCPPCPAPEAAGGPSVFLFPPKPKDTLMISRTPEVTCVVVDVSHEDPEVKFNWYVDGVEVHNAKTKPREEQYASTYRVVSVLTVLHQDWLNGKEYKCKVSNKALPAPIEKTISKAKGQPREPQVYTLPPSRCELTKNQVSLSCAVKGFYPSDIAVEWESNGQPENNYKTTPPVLDSDGSFFLVSKLTVDKSRWQQGNVFSCSVMHEALHNHYTQKSLSLSPDYKDDDDK EPKSSDKTHTCPPCPAPELLGGPSVFLFPPKPKDTLMISRTPEVTCVVVDVSHEDPEVKFNWYVDGVEVHNAKTKPREEQYNSTYRVVSVLTVLHQDWLNGKEYKCKVSNKALPAPIEKTISKAKGQPREPQVCTLPPSRDELTKNQVSLWCLVKGFYPSDIAVEWESNGQPENNYKTTPPVLDSDGSFFLYSKLTVDKSRWQQGNVFSCSVMHEALHNRYTQKSLSLSP
